Reference: patent US20230242646A1 (JJP BIOLOGICS SP Z O O, published 2023)
Numbering of substitutions follows the chain as printed. Numbers in names are those of the source. Where “and” joins values, the source holds several entries; their conditions need not be identical. Equal entries are not always repeated.

Key:
[1] = target: T1, recombinant C-terminal polyhistidine-tagged human (extracellular) CD89 (Sino Biological) (human, UniProt P24071 22-227); assay: ELISA, coated rhuCD89
T1 construct: extracellular domain; bought protein; also called rhuCD89; soluble monomeric rhuCD89
Method: After extensive washing with PBS/0.05% Tween 20, plates were blocked with PBS/0.05% Tween 20/1% BSA (Roche) for 1 hour at RT. Subsequently, plates were incubated with 50 µL titrated (in block buffer) purified mouse anti-human CD89 antibody/well for 1 hour at RT. […] After extensive washing in PBS/0.05% Tween 20, binding of antibodies on rhuCD89 was determined with 1:5,000 diluted horseradish peroxidase (HRP)-conjugated goat anti-mouse IgG Fcy-specific antibodies (Jackson ImmunoResearch) for 1 hour at RT, followed by a ready-to-use solution of TMB substrate (Invitrogen) for colorimetric detection.
After extensive washing with PBS/0.05% Tween 20, plates were blocked with PBS/0.05% Tween 20/1% BSA (Roche) for 1 hour at RT. […] After extensive washing in PBS/0.05% Tween 20, binding of antibodies on rhuCD89 was determined with 1:5,000 diluted horseradish peroxidase (HRP)-conjugated goat anti-human IgG Fcy-specific antibodies (Jackson ImmunoResearch) for 1 hour at RT, followed by a ready-to-use solution of TMB substrate (Invitrogen) for colorimetric detection.

[2] = target: T2, membrane-bound full-length human CD89 on HEK293F cells (human, UniProt P24071 22-287); assay: FACS, antibody before non-aggregated serum IgA on HEK293F-huCD89; IgA detected
T2 construct: 2 or transient transfectants; also called membrane human CD89; human FcaRI

[3] = target: T2, membrane-bound full-length human CD89 …; assay: FACS, antibody before secretory IgA on HEK293F-huCD89; IgA detected
[4] = target: T2, membrane-bound full-length human CD89 …; assay: FACS HEK293F-huCD89
Method: After extensive washing in PBS/BSA/NaN₃, cells were subsequently incubated with 1:200 diluted PE-conjugated goat anti-human IgG Fcy-specific antibodies (Jackson ImmunoResearch) for 30 minutes at 4° C. After extensive washing in PBS/BSA/NaN₃, cells were fixed in 2% formaldehyde in PBS/BSA/NaN₃ for 30 minutes at 4° C.

[5] = target: T2, membrane-bound full-length human CD89 …; assay: FACS, antibody before heat-aggregated serum IgA on HEK293F-huCD89; IgA detected
[6] = target: T1, recombinant C-terminal …; assay: ELISA on plate-coated rhuCD89; titrated supernatant; HRP goat anti-human IgG Fc detection, OD 450 nm [VL3]
[7] = target: T2, membrane-bound full-length human CD89 …; assay: FACS HEK293F-huCD89, purified Ab
Method: After extensive washing in PBS/BSA/NaN₃, cells were subsequently incubated with 1:200 diluted PE-conjugated goat anti-human IgG Fcγ-specific antibodies (Jackson ImmunoResearch) for 30 minutes at 4° C. After extensive washing in PBS/BSA/NaN₃, cells were fixed in 4% formaldehyde in PBS/BSA/NaN₃ for 30 minutes at 4° C.

[8] = target: T1, recombinant C-terminal …; assay: ELISA, coated rhuCD89, purified Ab
Method: After extensive washing with PBS/0.05% Tween 20, plates were blocked with PBS/0.05% Tween 20/1% BSA (Roche) for 1 hour at RT. […] After extensive washing in PBS/0.05% Tween 20, binding of antibodies on rhuCD89 was determined with 1:5,000 diluted horseradish peroxidase (HRP)-conjugated goat anti-human IgG Fcγ-specific antibodies (Jackson ImmunoResearch) for 1 hour at RT, followed by a ready-to-use solution of TMB substrate (Invitrogen) for colorimetric detection. After adding 1 M HCL, binding (optical density) of antibodies on rhuCD89 was measured at wavelength of 450 nm (reference wavelength of 655 nm) using a microplate reader (Synergy HTX; BioTek).

[9] = target: T2, membrane-bound full-length human CD89 …; assay: FACS HEK293F-huCD89; inhibition of serum human IgA binding
Method: (§1) After extensive washing in PBS/BSA/NaN₃, 1:200 diluted PE-conjugated streptavidin (Jackson ImmunoResearch) was added, and incubated for 30 minutes at 4° C. After extensive washing in PBS/BSA/NaN₃, cells were fixed in 4% formaldehyde in PBS/BSA/NaN₃ for 30 minutes at 4° C.

[10] = target: T2, membrane-bound full-length human CD89 …; assay: FACS HEK293F-huCD89; inhibition of secretory human IgA binding
Method: as §1

[11] = target: T1, recombinant C-terminal …; assay: BLI (Octet RED96), biotinylated Ab on streptavidin tips, rhuCD89 analyte, 1:1 model
Method: Equilibrium dissociation constants (KD) were determined using a 1:1 Langmuir binding model in Octet® RED96 software (ForteBio).

[12] = target: T1, recombinant C-terminal …; assay: ELISA on plate-coated rhuCD89; titrated supernatant; HRP goat anti-human IgG Fc detection, OD 450 nm [VL4]

B1: CD89/IgA blocking chimeric mouse/human IgG4/kappa anti-human CD89 antibody 8F3 (antibody)
heavy: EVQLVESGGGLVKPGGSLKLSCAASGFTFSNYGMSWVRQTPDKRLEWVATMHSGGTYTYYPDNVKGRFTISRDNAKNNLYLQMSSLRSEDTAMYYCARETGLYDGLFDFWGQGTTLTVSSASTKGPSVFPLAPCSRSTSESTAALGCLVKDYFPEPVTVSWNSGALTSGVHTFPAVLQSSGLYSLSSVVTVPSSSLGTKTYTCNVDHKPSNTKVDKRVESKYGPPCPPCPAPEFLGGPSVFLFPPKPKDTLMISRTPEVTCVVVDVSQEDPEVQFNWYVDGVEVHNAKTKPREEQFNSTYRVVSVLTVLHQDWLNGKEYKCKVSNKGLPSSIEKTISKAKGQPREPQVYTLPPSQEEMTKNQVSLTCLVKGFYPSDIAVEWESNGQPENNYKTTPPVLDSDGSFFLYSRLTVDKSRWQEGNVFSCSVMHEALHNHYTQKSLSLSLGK
light: DVQITQSPSYLAASPGETITINCRASKTISKYLAWYQEKPGKTNMLLIYSGSTLQSGVPSRFSGSGSGTDFTLTISSLEPEDLAMYYCQQHDEYPWTFGGGTKLEIKRTVAAPSVFIFPPSDEQLKSGTASVVCLLNNFYPREAKVQWKVDNALQSGNSQESVTEQDSKDSTYSLSSTLTLSKADYEKHKVYACEVTHQGLSSPVTKSFNRGEC
notes: stabilized (S239P) human IgG4; also called chimeric 8F3
For B1, which EC50 [1] is on record?
Its EC50 is 0.031 µg/mL.

And the “IC50 (read off the curve)” value [2]?
Its value is about 1 µg/mL.

And the “IC50 (read off the curve)” value [3]?
Its value is about 1 µg/mL.

And the EC50 [4]?
Its EC50 is 1.32 µg/mL.

What about the “IC50 (read off the curve)” value [5] of the same binder?
Its value is about 1 µg/mL.

B2: CD89/IgA blocking chimeric mouse/human IgG4/kappa anti-human CD89 antibody 30C7 (antibody)
heavy: not shown
light: DIVMSQSPSSLAVSAGEKVTMSCKSSQSLLNSRTRKNYLAWYQQKPGQSPKLLIYWASTRESGVPDRFTGSGSGTDFTLTISSVQAEDLAVYYCKQSYNLMYTFGGGTKLEIKRTVAAPSVFIFPPSDEQLKSGTASVVCLLNNFYPREAKVQWKVDNALQSGNSQESVTEQDSKDSTYSLSSTLTLSKADYEKHKVYACEVTHQGLSSPVTKSFNRGEC
notes: stabilized (S239P) human IgG4; also called chimeric 30C7
Which “IC50 (read off the curve)” value [2] does the source give for B2 here?
Its value is about 0.9 µg/mL.

And the “IC50 (read off the curve)” value [3]?
The value was about 1 µg/mL.

What about the “IC50 (read off the curve)” value [5] of the same binder?
Its value is about 0.8 µg/mL.

B3: humanized IgG4/kappa anti-human CD89 monoclonal antibody 10E7 version VH2VL3 (antibody)
heavy: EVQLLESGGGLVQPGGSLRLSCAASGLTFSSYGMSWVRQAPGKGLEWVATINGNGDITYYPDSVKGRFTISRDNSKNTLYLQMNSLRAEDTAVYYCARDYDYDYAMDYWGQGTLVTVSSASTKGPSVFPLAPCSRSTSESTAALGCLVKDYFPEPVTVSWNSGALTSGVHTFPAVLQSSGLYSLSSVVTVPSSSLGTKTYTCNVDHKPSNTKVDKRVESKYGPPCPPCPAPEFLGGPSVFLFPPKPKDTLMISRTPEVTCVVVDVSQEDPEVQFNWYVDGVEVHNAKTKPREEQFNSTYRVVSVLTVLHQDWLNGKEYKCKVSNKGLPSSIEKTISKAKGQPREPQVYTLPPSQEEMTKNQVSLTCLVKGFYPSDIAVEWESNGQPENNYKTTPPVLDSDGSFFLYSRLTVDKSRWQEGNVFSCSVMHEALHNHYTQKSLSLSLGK
light: DIQMTQSPSSLSASVGDRVTITCRASQDIINYLNWYQQKPGKAVKLLIYYTSRLHSGVPSRFSGSGSGTDYTLTISSLQPEDFATYYCQQGKTLPYTFGQGTKLEIKRTVAAPSVFIFPPSDEQLKSGTASVVCLLNNFYPREAKVQWKVDNALQSGNSQESVTEQDSKDSTYSLSSTLTLSKADYEKHKVYACEVTHQGLSSPVTKSFNRGEC
notes: tested as supernatant; signal peptide end derived as for m17
Which “EC50 (read off the curve)” value [6] does the source give for B3 here?
The value was about 0.04 µg/mL.

B4: 'CDR2 deamidation-repaired' humanized IgG4/kappa anti-human CD89 monoclonal antibody 10E7 version VH3SQVL3 (antibody)
heavy: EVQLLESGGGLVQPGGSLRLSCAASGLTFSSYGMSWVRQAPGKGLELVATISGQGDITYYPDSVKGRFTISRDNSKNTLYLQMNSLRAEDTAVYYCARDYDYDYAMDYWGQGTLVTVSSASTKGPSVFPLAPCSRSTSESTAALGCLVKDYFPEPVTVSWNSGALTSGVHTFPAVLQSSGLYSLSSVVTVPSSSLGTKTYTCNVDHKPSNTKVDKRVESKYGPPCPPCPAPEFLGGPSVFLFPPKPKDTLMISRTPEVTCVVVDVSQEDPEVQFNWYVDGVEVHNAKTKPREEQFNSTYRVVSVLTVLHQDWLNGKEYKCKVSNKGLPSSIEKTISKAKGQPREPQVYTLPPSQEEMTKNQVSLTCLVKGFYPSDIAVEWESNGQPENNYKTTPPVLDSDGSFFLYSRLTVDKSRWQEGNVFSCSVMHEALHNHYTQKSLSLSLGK
light: B3 light
notes: Biotinylated in the Octet assay; also called Humanized VH3SQVL3
What does the source list for B4?
EC50 [7]: ~0.6 µg/mL; EC50 [8]: ~0.01 µg/mL; IC50 [9]: ~0.9 µg/mL; IC50 [10]: ~0.6 µg/mL; Kd [11]: 0.82 nM; koff [11]: 0.000941 s⁻¹; kon [11]: 1.15e+06 M⁻¹ s⁻¹

B5: 'CDR2 deamidation-repaired' humanized IgG4/kappa anti-human CD89 monoclonal antibody 10E7 version VH3STVL3 (antibody)
heavy: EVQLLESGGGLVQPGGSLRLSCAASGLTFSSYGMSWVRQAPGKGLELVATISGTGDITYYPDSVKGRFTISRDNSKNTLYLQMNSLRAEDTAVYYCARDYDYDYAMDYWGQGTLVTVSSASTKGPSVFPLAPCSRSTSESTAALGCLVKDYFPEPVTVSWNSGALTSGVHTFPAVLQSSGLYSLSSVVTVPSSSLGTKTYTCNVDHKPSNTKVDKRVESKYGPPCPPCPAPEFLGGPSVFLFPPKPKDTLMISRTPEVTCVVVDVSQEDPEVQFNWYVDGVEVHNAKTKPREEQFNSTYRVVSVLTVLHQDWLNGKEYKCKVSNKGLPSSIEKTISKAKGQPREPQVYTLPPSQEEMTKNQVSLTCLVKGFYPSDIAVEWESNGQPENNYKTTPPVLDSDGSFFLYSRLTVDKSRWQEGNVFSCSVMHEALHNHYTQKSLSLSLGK
light: B3 light
notes: Biotinylated in the Octet assay; also called Humanized VH3STVL3
With B5 as the binder, how does the EC50 [7] read?
Its EC50 is about 0.6 µg/mL.

What about the EC50 [8] of the same binder?
Its EC50 is about 0.01 µg/mL.

And the IC50 [9]?
Its IC50 is about 0.9 µg/mL.

And the IC50 [10]?
The IC50 was about 0.6 µg/mL.

And the Kd [11]?
The Kd was 0.92 nM.

And the koff [11]?
The koff was 0.000974 s⁻¹.

And the kon [11]?
Its kon is 1.06e+06 M⁻¹ s⁻¹.

B6: humanized IgG4/kappa anti-human CD89 monoclonal antibody 10E7 version VH1VL3 (antibody)
heavy: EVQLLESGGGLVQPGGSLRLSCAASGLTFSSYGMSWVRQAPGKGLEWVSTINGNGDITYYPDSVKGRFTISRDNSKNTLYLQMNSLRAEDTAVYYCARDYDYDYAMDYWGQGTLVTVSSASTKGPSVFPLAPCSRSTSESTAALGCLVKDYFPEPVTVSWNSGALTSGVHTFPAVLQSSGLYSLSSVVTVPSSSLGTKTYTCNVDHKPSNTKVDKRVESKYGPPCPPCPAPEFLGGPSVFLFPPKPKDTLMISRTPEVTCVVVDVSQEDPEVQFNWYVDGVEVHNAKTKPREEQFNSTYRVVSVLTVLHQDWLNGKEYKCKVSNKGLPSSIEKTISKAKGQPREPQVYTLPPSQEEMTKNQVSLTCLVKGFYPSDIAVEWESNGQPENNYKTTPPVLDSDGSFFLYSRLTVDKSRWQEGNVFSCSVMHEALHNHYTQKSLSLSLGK
light: B3 light
notes: as for B3
With B6 as the binder, how does the “EC50 (read off the curve)” value [6] read?
The value was about 0.03 µg/mL.

B7: humanized IgG4/kappa anti-human CD89 monoclonal antibody 10E7 version VH1VL4 (antibody)
heavy: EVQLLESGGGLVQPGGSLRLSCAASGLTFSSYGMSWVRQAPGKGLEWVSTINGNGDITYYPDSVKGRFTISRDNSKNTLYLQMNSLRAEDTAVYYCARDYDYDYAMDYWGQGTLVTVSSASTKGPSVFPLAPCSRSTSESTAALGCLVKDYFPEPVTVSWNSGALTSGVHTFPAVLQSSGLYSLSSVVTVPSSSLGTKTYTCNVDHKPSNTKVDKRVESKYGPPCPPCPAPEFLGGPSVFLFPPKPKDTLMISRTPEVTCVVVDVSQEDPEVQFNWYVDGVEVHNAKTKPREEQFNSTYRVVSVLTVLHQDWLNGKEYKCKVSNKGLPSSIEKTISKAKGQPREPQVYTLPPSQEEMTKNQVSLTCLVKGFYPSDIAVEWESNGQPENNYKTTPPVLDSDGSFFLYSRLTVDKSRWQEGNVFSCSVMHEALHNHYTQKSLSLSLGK
light: B3 light with A43T, Y87F
notes: as for B3
For B7, which “EC50 (read off the curve)” value [12] is on record?
The value was about 0.03 µg/mL.

B8: humanized IgG4/kappa anti-human CD89 monoclonal antibody 10E7 version VH2VL4 (antibody)
heavy: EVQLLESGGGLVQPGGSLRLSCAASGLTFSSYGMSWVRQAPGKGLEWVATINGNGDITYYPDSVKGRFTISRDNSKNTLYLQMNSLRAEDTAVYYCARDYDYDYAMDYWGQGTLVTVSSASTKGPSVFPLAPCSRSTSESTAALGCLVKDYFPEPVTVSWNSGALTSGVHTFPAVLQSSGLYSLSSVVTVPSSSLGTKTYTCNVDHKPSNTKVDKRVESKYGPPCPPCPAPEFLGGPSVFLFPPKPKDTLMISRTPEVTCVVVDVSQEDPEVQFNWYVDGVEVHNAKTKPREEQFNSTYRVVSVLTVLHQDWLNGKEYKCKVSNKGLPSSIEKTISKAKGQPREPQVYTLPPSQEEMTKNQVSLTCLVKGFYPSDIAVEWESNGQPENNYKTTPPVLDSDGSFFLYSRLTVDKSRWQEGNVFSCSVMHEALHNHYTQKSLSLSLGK
light: B3 light with A43T, Y87F
notes: as for B3
With B8 as the binder, how does the “EC50 (read off the curve)” value [12] read?
The value was about 0.03 µg/mL.

B9: CD89/IgA blocking chimeric mouse/human IgG4/kappa anti-human CD89 antibody 20B4 (antibody)
heavy: not shown
light: DILMTQSPSSMSVSLGDTVSITCHASQDISRNIGWLQQKPGKSFKGLIYHGTNLEDGVPSRFSGSGSGADYSLTISSLESEDFADYYCVQYAQFPRTFGGGTKLEIKRTVAAPSVFIFPPSDEQLKSGTASVVCLLNNFYPREAKVQWKVDNALQSGNSQESVTEQDSKDSTYSLSSTLTLSKADYEKHKVYACEVTHQGLSSPVTKSFNRGEC
notes: stabilized (S239P) human IgG4; also called chimeric 20B4
For B9, which EC50 [1] is on record?
Its EC50 is 0.009 µg/mL.

What about the EC50 [4] of the same binder?
Its EC50 is 0.296 µg/mL.

B10: CD89/IgA blocking chimeric mouse/human IgG4/kappa anti-human CD89 antibody 10E7 (antibody)
heavy: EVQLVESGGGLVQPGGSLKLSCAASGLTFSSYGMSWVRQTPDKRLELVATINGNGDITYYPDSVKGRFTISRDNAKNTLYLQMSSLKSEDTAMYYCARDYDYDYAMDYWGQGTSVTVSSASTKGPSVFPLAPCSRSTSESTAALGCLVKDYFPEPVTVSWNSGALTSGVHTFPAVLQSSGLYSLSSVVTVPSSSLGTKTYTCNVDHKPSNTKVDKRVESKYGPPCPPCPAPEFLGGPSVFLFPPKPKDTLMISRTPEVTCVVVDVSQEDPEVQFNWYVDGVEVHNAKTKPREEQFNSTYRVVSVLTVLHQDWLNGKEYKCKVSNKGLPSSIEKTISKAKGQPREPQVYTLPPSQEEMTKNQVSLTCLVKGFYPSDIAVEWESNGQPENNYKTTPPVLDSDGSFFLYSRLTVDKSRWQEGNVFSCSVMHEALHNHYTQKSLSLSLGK
light: DIQMTQSTSSLSASLGDSVTISCRASQDIINYLNWYQQKPDGTVKLLIYYTSRLHSGVPSRFSGSGSGTEYSLTVSNLEKEDIATYFCQQGKTLPYTFGGGTKLEIKRTVAAPSVFIFPPSDEQLKSGTASVVCLLNNFYPREAKVQWKVDNALQSGNSQESVTEQDSKDSTYSLSSTLTLSKADYEKHKVYACEVTHQGLSSPVTKSFNRGEC
notes: stabilized (S239P) human IgG4; biotinylated in the Octet assay; also called chimeric 10E7; chimer IgG4/k 10E7
B10 was tested. Which EC50 [1] did it give?
Its EC50 is 0.016 µg/mL and ~0.02 µg/mL.

What about the EC50 [7] of the same binder?
Its EC50 is about 1.3 µg/mL.

What about the EC50 [4] of the same binder?
The EC50 was 1.25 µg/mL and ~1 µg/mL.

And the EC50 [8]?
The EC50 was about 0.01 µg/mL.

And the IC50 [9]?
The IC50 was about 1.6 µg/mL.

What about the IC50 [10] of the same binder?
The IC50 was about 1 µg/mL.

What about the Kd [11] of the same binder?
Its Kd is 1.28 nM.

What about the koff [11] of the same binder?
The koff was 0.00106 s⁻¹.

What about the kon [11] of the same binder?
The kon was 832000 M⁻¹ s⁻¹.

B11: CD89/IgA blocking chimeric mouse/human IgG4/kappa anti-human CD89 antibody 16D6 (antibody)
heavy: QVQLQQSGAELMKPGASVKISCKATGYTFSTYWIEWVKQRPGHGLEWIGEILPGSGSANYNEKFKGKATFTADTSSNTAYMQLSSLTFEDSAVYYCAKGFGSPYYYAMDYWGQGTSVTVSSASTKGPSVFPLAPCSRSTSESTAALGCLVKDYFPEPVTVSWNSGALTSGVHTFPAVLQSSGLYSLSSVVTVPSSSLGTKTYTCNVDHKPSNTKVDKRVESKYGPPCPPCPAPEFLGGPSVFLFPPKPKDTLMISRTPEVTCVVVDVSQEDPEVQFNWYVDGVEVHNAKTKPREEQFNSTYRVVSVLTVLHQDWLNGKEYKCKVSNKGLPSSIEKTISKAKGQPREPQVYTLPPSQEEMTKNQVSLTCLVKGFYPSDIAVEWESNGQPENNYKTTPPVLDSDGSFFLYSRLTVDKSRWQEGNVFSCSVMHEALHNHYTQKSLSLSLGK
light: EIVLTQSPALMAASPGEKVTITCSVSSSISSSNLHWYQQKSETSPKPWIYGTSKLASGVPVRFSGSGSGTSYSLTISNMEAEDAATYYCQQWSSFPLTFGGGTKLEIKRTVAAPSVFIFPPSDEQLKSGTASVVCLLNNFYPREAKVQWKVDNALQSGNSQESVTEQDSKDSTYSLSSTLTLSKADYEKHKVYACEVTHQGLSSPVTKSFNRGEC
notes: stabilized (S239P) human IgG4; also called chimeric 16D6
Which EC50 [1] does the source give for B11 here?
The EC50 was 0.108 µg/mL.

What about the EC50 [4] of the same binder?
The EC50 was 1.79 µg/mL.
